In patent US20110189776, “PROKARYOTIC RNAi-LIKE SYSTEM AND METHODS OF USE” (University of Georgia Research Foundation, Inc., published 2011):

Biological target: native psiRNP containing Cmr1-1, Cmr1-2, Cmr2, Cmr3, Cmr4, Cmr5, Cmr6 (Pyrococcus furiosus, UniProt Q8U1S5;Q8U3V3;Q8U1S6;Q8U1S7;Q8U1S9;Q8U1T0;Q8U1T1 …)
Test: EMSA; native gel Northern with psiRNA 7.01 probe; mobility shift lost on deproteinization
Details: tags: S-sepharose peak fraction, endogenous psiRNAs; other co-purifying proteins present

**Q.** Does AUUGAAAGUUGUAGUAUGCGGUCCUUGCGGCUGAGAGCACUUCAG (ssRNA) [psiRNA 7.01, 45 nt] bind?
**A.** binds
